Results: PMC9499683, “Isolation and Characterization of Homologically Expressed Methanol Dehydrogenase from Methylorubrum extorquens AM1 for the Development of Bioelectrocatalytical Systems” (International Journal of Molecular Sciences, 2022)

Legend:
Experiment in all cases: purified protein
Settings in all cases: pH 9.0, 30 °C, free enzyme, ammonium needed as activator
purified protein [1] = substrate: CCO
purified protein [2] = substrate: CCCCCO; type: biochemical, Methylorubrum extorquens
purified protein [3] = substrate: CCCCO; type: biochemical, Methylorubrum extorquens
purified protein [4] = substrate: CO; type: biochemical, Methylorubrum extorquens

B1: MDH-His6-tag (recombinant PQQ-dependent methanol dehydrogenase, PQQ-MDH) (Methylorubrum extorquens AM1) (protein)
chain: NDKLVELSKSDDNWVMPGKNYDSNNFSDLKQINKGNVKQLRPAWTFSTGLLNGHEGAPLVVDGKMYIHTSFPNNTFALGLDDPGTILWQDKPKQNPAARAVACCDLVNRGLAYWPGDGKTPALILKTQLDGNVAALNAETGETVWKVENSDIKVGSTLTIAPYVVKDKVIIGSSGAELGVRGYLTAYDVKTGEQVWRAYATGPDKDLLLASDFNIKNPHYGQKGLGTGTWEGDAWKIGGGTNWGWYAYDPGTNLIYFGTGNPAPWNETMRPGDNKWTMTIFGRDADTGEAKFGYQKTPHDEWDYAGVNVMMLSEQKDKDGKARKLLTHPDRNGIVYTLDRTDGALVSANKLDDTVNVFKSVDLKTGQPVRDPEYGTRMDHLAKDICPSAMGYHNQGHDSYDPKRELFFMGINHICMDWEPFMLPYRAGQFFVGATLNMYPGPKGDRQNYEGLGQIKAYNAITGDYKWEKMERFAVWGGTMATAGDLVFYGTLDGYLKARDSDTGDLLWKFKIPSGAIGYPMTYTHKGTQYVAIYYGVGGWPGVGLVFDLADPTAGLGAVGAFKKLANYTQMGGGVVVFSLDGKGPYDDPNVGEWKSAAK
notes: full-length mxaF ORF with leader peptide and C-terminal His6 tag, expressed from pCM160 in M. extorquens AM1; small subunit co-purified from host; Ni-NTA; PQQ and Ca2+; with Methanol dehydrogenase [cytochrome c] subunit 2
- Km (purified protein [1]): 610 ± 60 µM
- Vmax (purified protein [1]): 2.9 µmol/min/mg
- Km (purified protein [2]): 1400 ± 100 µM
- Vmax (purified protein [2]): 2.8 µmol/min/mg
- Km (purified protein [3]): 1900 ± 200 µM
- Vmax (purified protein [3]): 2.7 µmol/min/mg
- Km (purified protein [4]): 360 ± 70 µM
- Vmax (purified protein [4]): 4.2 µmol/min/mg
